B1: Recombinant Human IL-15R alpha Fc chimera Protein (CD215) (Fc fusion, UniProt Q13261 31-205, looked up)
chain: ITCPPPMSVEHADIWVKSYSLYSRERYICNSGFKRKAGTSSLTECVLNKATNVAHWTTPSLKCIRDPALVHQRPAPPSTVTTAGVTPQPESLSPSGKEPAASSPSSNNTAATTAAIVPGSQLMPSKSPSTGTTEISSHESSHGTPSQTTAKNWELTASASHQPPGVYPQGHSDTT
notes: also called human CD215; Fc part of the bought chimera not given
B2: Recombinant Human IL-2 R beta Protein (CD122) (receptor, UniProt P14784 27-239, looked up)
chain: AVNGTSQFTCFYNSRANISCVWSQDGALQDTSCQVHAWPDRRRWNQTCELLPVSQASWACNLILGAPDSQKLTTVDIVTLRVLCREGVRWRVMAIQDFKPFENLRLMAPISLQVVHVETHRCNISWEISQASHYFERHLEFEARTLSPGHTWEEAPLLTLKQKQEWICLETLTPDTQYEFQVRVKPLQGEFTTWSPWSQPLAFRTKPAALGKD
notes: also called human CD122

Legend:
AK564 [1] = molecular target: T1, AK564 (human, UniProt Q13261 31-96); experiment: SPR (Biacore 8K), multi-cycle kinetics, human CD215 immobilised by amine coupling, construct as analyte, 25 C
T1 construct: also called IL-15 masked non-cleavable AK564

AK564 [2] = molecular target: T1, AK564; experiment: SPR (Biacore 8K), multi-cycle kinetics, human CD122 immobilised by amine coupling, construct as analyte, 25 C

Binder	binding result (AK564 [1])	binding result (AK564 [2])
B1	no binding (tested: Top 40 nM, 2x dilution)	–
B2	–	no binding (tested: Top 500 nM, 2x dilution)

— patent US20230331799A1 (XILIO DEVELOPMENT, published 2023)
